In US10689452 (UNIVERSIT T STUTTGART, dated 2020):

Tests used:
[1] = molecular target: T1, human TNFR1-Fc fusion protein (human, UniProt P19438 29-211); experiment: ELISA, human TNFR1-Fc
T1 construct: range 29-211; Made in stably transfected HEK293 cells; coated on ELISA plates or immobilised on QCM chips; also called huTNFR1-Fc; human TNFR-Fc; not shown: Fc part from vector pSecTagL1-Fc
T1 sequence (looked up): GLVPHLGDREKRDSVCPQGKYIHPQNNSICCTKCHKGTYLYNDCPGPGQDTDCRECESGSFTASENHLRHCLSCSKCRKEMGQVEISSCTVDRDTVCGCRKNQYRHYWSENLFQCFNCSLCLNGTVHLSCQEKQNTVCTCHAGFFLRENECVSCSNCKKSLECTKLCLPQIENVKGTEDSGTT

[2] = molecular target: T2, human TNFR1 on cells (HT1080, HeLa, Kym-1) (human, UniProt P19438 30-455); experiment: cell-based or functional assay
T2 sequence (looked up): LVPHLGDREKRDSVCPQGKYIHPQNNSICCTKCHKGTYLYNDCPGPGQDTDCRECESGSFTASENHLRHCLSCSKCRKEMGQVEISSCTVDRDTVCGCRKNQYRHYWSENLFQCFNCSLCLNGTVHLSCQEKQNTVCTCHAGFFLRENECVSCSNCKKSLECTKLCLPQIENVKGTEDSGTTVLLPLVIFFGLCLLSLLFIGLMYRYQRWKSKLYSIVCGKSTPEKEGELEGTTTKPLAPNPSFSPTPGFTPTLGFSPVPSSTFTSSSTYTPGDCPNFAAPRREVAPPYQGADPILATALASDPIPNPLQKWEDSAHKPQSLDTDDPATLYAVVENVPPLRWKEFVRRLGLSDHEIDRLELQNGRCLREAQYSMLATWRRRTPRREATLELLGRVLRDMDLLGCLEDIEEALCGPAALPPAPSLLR

[3] = molecular target: T1, human TNFR1-Fc fusion protein; experiment: standard ELISA, human TNFR1-Fc
Protocol: (§1) FIG. 1. […] Applied were triplicates of five concentrations between 3.9 nM and 62.5 nM.
(§2) Microtiter plates were coated with 100 µl of the indicated protein (1 µg/ml in PBS, see Table 3.3) and incubated at 4° C. over night. The residual binding sites were blocked with 2% MPBS (skim milk in PBS, 200 µl per well) at room temperature for 2 hours and subsequently washed twice with PBS. 100 µl of the samples diluted in 2% MPBS were incubated at room temperature for 1 hour prior to the last incubation step with 100 µl of the HRP conjugated detection antibodies in 2% MPBS. In the case of competition experiments, both analyzed protein samples were prepared individually (either titrated or diluted to a single concentration) and mixed before they were applied to the plate. Bound protein was detected with 100 µl TMB substrate solution, the HRP-reaction was stopped by the addition of 50 µl 1 M H2SO4 and the absorption at the wavelength of 450 nm was measured using the Infinite microtiter plate reader (TECAN, Maennedorf, Switzerland). Between each incubation step and in advance of the detection, the plates were washed three times with PBST and twice with PBS.

[4] = molecular target: T1, human TNFR1-Fc fusion protein; experiment: QCM, human TNFR1-Fc immobilised, low receptor density (48 Hz)
Protocol: (§3) Real-time binding dynamics in protein-protein interactions were determined by quartz crystal microbalance measurements (A-100 C-Fast or Cell-200 C-Fast, Attana, Stockholm, Sweden). One of the binding partners (ligand, e.g. TNFR1-Fc) was chemically immobilized on a carboxyl sensor chip according to the manufacturer's protocol at different densities (nearly 200 Hz in the case of saturating conditions to confirm previously published results and 50-100 Hz, in particular at about 50 Hz, to establish conditions of lower receptor density, better resembling the situation on the cellular surface). Binding experiments were performed with samples (analyte) diluted in PBST (PBS, 0.1% Tween 20) at pH 7.4 with a flow rate of 25 µl/min at 37° C. The chip was regenerated with 25 µl 5 mM NaOH or 20 mM glycine, pH 2.0. Every third measurement, an injection of running buffer was measured which was subtracted from the binding curve. Data were collected using the software provided by Attana for the particular device and analyzed by Attaché Office Evaluation software (Attana, Stockholm, Sweden) and TraceDrawe (ridgview instruments, Vange, Sweden).

[5] = molecular target: T1, human TNFR1-Fc fusion protein; experiment: QCM, human TNFR1-Fc immobilised, high receptor density (195 Hz)
Protocol: as §1, §3

[6] = molecular target: T1, human TNFR1-Fc fusion protein; experiment: ELISA on coated huTNFR1-Fc, antibody titrated, signal as Binding [%]
Protocol: FIG. 13. […] Increasing concentrations were tested for their binding to huTNFR1-Fc in ELISA (n=3, mean±SD).
as §2

[7] = molecular target: T1, human TNFR1-Fc fusion protein; experiment: ELISA on coated human TNFR1-Fc, reference curve next to Fv13.7-Fckih0DS
Protocol: as §2

[8] = molecular target: T1, human TNFR1-Fc fusion protein; experiment: QCM, human TNFR1-Fc, moderate receptor density (86 Hz), biphasic fit, KD2 (high-affinity part)
Protocol: as §3

[9] = molecular target: T1, human TNFR1-Fc fusion protein; experiment: QCM, human TNFR1-Fc, moderate receptor density (86 Hz), biphasic fit, kon1 (low-affinity part)
Protocol: as §3

[10] = molecular target: T1, human TNFR1-Fc fusion protein; experiment: QCM, human TNFR1-Fc, moderate receptor density (86 Hz), biphasic fit, koff1 (low-affinity part)
Protocol: as §3

[11] = molecular target: T1, human TNFR1-Fc fusion protein; experiment: QCM, human TNFR1-Fc, moderate receptor density (86 Hz), biphasic fit, kon2 (high-affinity part)
Protocol: as §3

[12] = molecular target: T1, human TNFR1-Fc fusion protein; experiment: QCM, human TNFR1-Fc, moderate receptor density (86 Hz), biphasic fit, koff2 (high-affinity part)
Protocol: as §3

fold weaker binding (higher EC50) compared with IgG13.7 [1]: 1.4 fold
IC50, IL-6 (nM); inhibition of the response of HeLa cells to 0.1 nM TNF [2]: 179 nM
IC50, IL-8 (nM); inhibition of the response of HT1080 cells to 0.1 nM TNF [2]: 118 nM
IL-6 release (pg/ml), HeLa cells [2]: 231 pg/mL
IL-8 release (pg/ml), HT1080 cells [2]: 240 pg/mL
EC50 [3]: 0.25 nM
Factor (EC50, ATROSAB against H398) [3]: 1.7 fold
Factor (KD low density chip, ATROSAB against H398) [4]: 2.8 fold
Factor (koff low density chip, ATROSAB against H398) [4]: 7.6 fold
Kd [4]: 4.5 nM
fold faster kon than H398 [4]: 2.6 fold
koff [4]: 0.0047 s⁻¹
Factor (KD high density chip, ATROSAB against H398) [5]: 1.5 fold
Kd [5]: 0.35 nM
EC50 (read off the curve) [6]: ~1 nM
EC50 (read off the curve) [7]: ~0.2 nM
Kd [8]: 0.38 nM
kon [9]: 282000 M⁻¹ s⁻¹
koff [10]: 0.0219 s⁻¹
kon [11]: 1.06e+06 M⁻¹ s⁻¹
koff [12]: 0.000407 s⁻¹
B1: ATROSAB (antibody, IgG1, V domains shown)
VH: QVQLVQSGAEVKKPGSSVKVSCKASGYTFTDFYINWVRQAPGQGLEWIGEIYPYSGHAYYNEKFKARVTITADKSTSTAYMELSSLRSEDTAVYYCARWDFLDYWGQGTTVTVSS
VL: DIVMTQSPLSLPVTPGEPASISCRSSQSLLHSNGNTYLHWYLQKPGQSPQLLIYTVSNRFSGVPDRFSGSGSGTDFTLKISRVEAEDVGVYYCSQSTHVPYTFGGGTKVEIKR
notes: Humanized full-length IgG1 with a modified Fc region deficient in mediating effector functions (made according to WO2012035141); also called full length IgG ATROSAB
IC50, Cytotox (nM); inhibition of Kym-1 cell death by 0.01 nM TNF [2]: 24 nM
